Patent US20230050038A1 (WASHINGTON UNIVERSITY, published 2023)
Substitutions are numbered along the chain they refer to.

B1: PDGF-B-cons (consensus sequence), displayed on the yeast surface (ligand)
chain: SLGSLTIAEPAMIAECKTRTEVFRISRNLIDRTNANFLVWPPCVEVQRCSGCCNNRYVQCRPTQVQLRPVQVRKIEFVRKKPIFKKATVTLEDHLACRCETVAA
notes: Consensus of the isolated clones, tested on the yeast surface; also called PDGF-BB-cons; not shown: Aga2p fusion partner, glycine-rich linkers and c-myc tag
B2: Clone-01, PDGF-B variant displayed on the yeast surface (ligand)
chain: B1 chain with V22L
notes: not shown: Aga2p fusion partner, glycine-rich linkers and c-myc tag
B3: Clone-02, PDGF-B variant displayed on the yeast surface (ligand)
chain: B1 chain with K17N, Y57N, T101K
notes: as for B2
B4: Clone-03, PDGF-B variant displayed on the yeast surface (ligand)
chain: B1 chain with V22L, R98K, T101K
notes: as for B2
B5: Clone-07, PDGF-B variant displayed on the yeast surface (ligand)
chain: B1 chain with R24E, Y57N, R98K
notes: as for B2
B6: Clone-08, PDGF-B variant displayed on the yeast surface (ligand)
chain: B1 chain with V22L, F77I
notes: as for B2

These binders were tested against T1, PDGFRβ soluble extracellular domain (UniProt P09619 33-532, limits assumed, fluorescently labeled) (assay: yeast surface display, flow cytometry with soluble PDGFRβ).
T1 construct: extracellular domain; also called PDGFRβ ectodomain; soluble PDGFRβ
T1 sequence (P09619 33-532 limits assumed): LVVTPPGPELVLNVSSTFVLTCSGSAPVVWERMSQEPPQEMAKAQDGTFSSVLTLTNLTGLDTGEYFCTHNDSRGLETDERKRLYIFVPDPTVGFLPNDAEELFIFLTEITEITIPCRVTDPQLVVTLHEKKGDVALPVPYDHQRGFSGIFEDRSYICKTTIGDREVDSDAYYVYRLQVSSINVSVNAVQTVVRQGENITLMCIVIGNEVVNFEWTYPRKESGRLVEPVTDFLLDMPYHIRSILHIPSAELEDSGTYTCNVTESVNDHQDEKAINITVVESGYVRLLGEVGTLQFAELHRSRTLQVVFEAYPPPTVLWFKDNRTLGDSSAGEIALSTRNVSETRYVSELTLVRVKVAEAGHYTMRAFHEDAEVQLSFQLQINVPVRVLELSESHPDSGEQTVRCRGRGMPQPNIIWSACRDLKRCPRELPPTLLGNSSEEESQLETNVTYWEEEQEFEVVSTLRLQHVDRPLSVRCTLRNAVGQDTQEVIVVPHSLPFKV
B1: binds.

Each binder was assayed against T1, PDGFRβ soluble extracellular domain (assay: combinatorial yeast display library enriched by FACS for high binding signal to PDGFRβ ectodomain).
B2: binds. B3: binds. B4: binds. B5: binds. B6: binds.
